test: yeast display, Sf9 membrane polyspecificity reagent, FACS + sequencing; frameworks hold sequencing errors
Procedure, shortened: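 Using colony PCR, genes from sorted yeast display clones were amplified, then sequenced on MiSeq at 2 × 250 and filtered by CDR length. The clones had been stained with 10% biotinylated, detergent-solubilized Sf9 membrane reagent for 1 hour at 4 °C and sorted by FACS into low and high (top ~1%) gates on anti-HA and streptavidin fluorescence. Polyreactivity labels come from the gate of origin.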

Sequence	polyreactivity (PSR sort gate)
QVQLVESGGGLVQAGGSLRLSCAASGRTFKSYALGWYRQAPGKERELVATITRDGRTNYADSVKGRFTISRDNAKNTVYLQMNSLKPEDTAVYYCNADSRYRYDYWGQGTQVTVSS	low polyreactivity
QVQLVESGGGLVQAGGSLRLSCAASGRTFKTYAMVWYRQAPGKERELVAAISRDGRTYYADSVKGRFTISRDNAKNTVYLQMNSLKPEDTAVYYCNKRSYRNGDYWGQGTQVTVSS	low polyreactivity
QVQLVESGGGLVQAGGSLRLSCAASGRTFKVYAMGWYRPAPGKERELVAAISGSGGSTYYADSVKGRFTISRDNAKNTVYLQMNSLKPEDTAVYYCATDPSAPYTQLSSYYYWGQGTQVTVSS	low polyreactivity
QVQLVESGGGLVQAGGSLRLSCAASGRTFKWYAMGWYRQAPGKERELVAAISSSGSTYYADSVKGRFTISRDNAKNTVYLQMNSLKPEDTAVYYCAVLRRYLVGNLVGYNYWGQGTQVTVSS	high polyreactivity
QVQLVESGGGLVQAGGSLRLSCAASGRTFKYNAMGWYRQAPGKEREFVAAISSRGGSTYYADSVKGRFTISRDNAKNTVYLQMNSLKPEDTAVYYCNKLYGTRWSGLADDYWGQGTQVTVSS	high polyreactivity
QVQLVESGGGLVQAGGSLRLSCAASGRTFKYNAMGWYRQAPGKERELVAAISSRGGSTYYADSVKGRFTISRDNAKNTVYLQMISLKPEDTAVYYGANATSSSEYGYDYWGQGTQVTVSS	high polyreactivity
QVQLVESGGGLVQAGGSLRLSCAASGRTFKYNVMGWYRPAPGKERELVAAISSGGGTNYADSVKGRFTISRDNAKKTVYFQINSLKPEDTAVYYCAAKYAWRLLEMYYWGQGTQVTVSS	low polyreactivity
QVQLVESGGGLVQAGGSLRLSCAASGRTFKYYAMGCYRQARGKERELVAAISGSGGSTYYADSVKGRFTISRDNAKNTVYLQMNSLKPEDTAVYYCATGGGKTRSYNYWGKGTQVTVSS	high polyreactivity
QVQLVESGGGLVQAGGSLRLSCAASGRTFKYYAMGWYRQAPGKERELVAAISRSGGSTYADSVKGRFTISRDNAKNTVYLQMNSLKPEDTAVYYCATGWWRQGVASFDYDYWGQGTQVTVSS	high polyreactivity
QVQLVESGGGLVQAGGSLRLSCAASGRTFKYYAMGWYRQAPGKERELVAAISRSGGSTYYADSVKGRFTISRDNAKNTVYLQMNSLKPEDTAVYYCNAEYLWIRHIAEDYWGQGTQVTVSS	low polyreactivity
QVQLVESGGGLVQAGGSLRLSCAASGRTFKYYAMGWYRQAPGKERELVAAITTGGSTHYADSVKGRFTISRDNAKNTVYLQMNSLKPEDTAVYYCAAGPFARYDYWGQGTEVTVSS	low polyreactivity
QVQLVESGGGLVQAGGSLRLSCAASGRTFKYYTMGWYRQAPGKERELVAAISGGGGITNYADSVKGRFTISRDNAKNTVYLQMNSQKPEDTAVYYCYARYNSWRYLAQYNYWGQGTQVTVSS	high polyreactivity
QVQLVESGGGLVQAGGSLRLSCAASGRTFLGYAMGWYRQAPGKERELVAAINRSGGRTYYADSVKGRFTISRDNAKNTVYLQMNSMKQEDTSVYYCAAYTSYSAYDYWGQGTQVTVSS	high polyreactivity
QVQLVESGGGLVQAGGSLRLSCAASGRTFLGYAMGWYRQAPGKERELVAAISYSGSSTYYADSVKGRFTITRDNAKITVYLQMNSLKPEDTAVYYCAAQFFFLFDYWGQGTQVTLSS	low polyreactivity
QVQLVESGGGLVQAGGSLRLSCAASGRTFLINAMGWYRQAPGKERELVAAITQSGGSTYYADSVKGRFTISRDNAKNTVYLQMNSLKPEDTAVYYCNAQSWYIVPYDYWGQGTQVTVSS	low polyreactivity
QVQLVESGGGLVQAGGSLRLSCAASGRTFLLNAMGWYRQAPGKERELVAAMTRSGVITYYADSVKGRFTISRDNAKNTVYLQMNSLKPEDTAVYYCAARRDARSTEYGYWGQGTQVTVSS	high polyreactivity
